Molecular target: the molecule itself
Experiment: native MS

B1: Rv2607 from Mycobacterium tuberculosis H37Rv, amino-terminal 6x-histidine tag fusion protein (enzyme)
chain: MDDDAQMVAIDKDQLARMRGEYGPEKDGCGDLDFDWLDDGWLTLLRRWLNDAQRAGVSEPNAMVLATVADGKPVTRSVLCKILDESGVAFFTSYTSAKGEQLAVTPYASATFPWYQLGRQAHVQGPVSKVSTEEIFTYWSMRPRGAQLGAWASQQSRPVGSRAQLDNQLAEVTRRFADQDQIPVPPGWGGYRIAPEIVEFWQGRENRMHNRIRVANGRLERLQP
notes: also called PNPOx; pyridoxine 5'-phosphate oxidase; not shown: His6, N-terminal, kept
  stoichiometry N: 2
